Assay results from the supplement of paper PMC6757056.
± gives the standard deviation of the averaged measurements.

B1: library; a variant is named by its letters at N, in order (parent)
chain: GCUGUCACCGGUGUAUUACCCUAGUGGUCGACCGGUCUGAUGAGUCUNNNNNNAGACGAAACAGC

Legend:
hypoxanthine [1] = variants of: B1; test: FACS-Seq fitted mean relative fluorescence mCherry/BFP without ligand (log10 relative fluorescence); ligand: hypoxanthine (xanthine aptamer); higher = higher reporter protein expression; conditions: HEK293T, ligand present: no
How it was run: (§1)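 With or without ligand for 48 h, enriched HEK293T libraries carrying a lentiviral ribozyme-switch mCherry reporter and EF1α-BFP were sorted into 6 mCherry/BFP bins. Bin genomic DNA was amplified by PCR, barcoded and sequenced on MiSeq. Fluorescence was taken from normal fits to the resulting bin counts. Each fitted mean of log10(mCherry/BFP) was scaled to five spiked-in control ribozymes.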

hypoxanthine [2] = variants of: B1; test: normalized RNA/DNA level with ligand (relative to sTRSVctl = 100) (log10 (% of sTRSVctl)); ligand: hypoxanthine (xanthine aptamer); higher = less ribozyme self-cleavage, higher mRNA level; conditions: ligand concentration (+) RNA-Seq: 5 mM, HEK293T, reporter: mCherry (pCS4076), ligand present: yes
Method: (§2)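 Hammerhead (sTRSV) ribozyme switch libraries with a ligand aptamer grafted on stem I and a randomized N4-6 loop II, cloned into the 3' UTR of mCherry and transiently transfected into HEK293T cells; RNA-Seq 72 h post transfection with ligand added 1 h before transfection; RNA read count / plasmid DNA read count normalized to the non-cleaving sTRSVctl (x100), log10; sequences with >100 DNA reads. FACS-Seq: lentiviral library sorted into 6 bins after 48 h ligand, log-normal fit mean of mCherry/BFP scaled to controls. Printed sequences are partial switch sequences.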

hypoxanthine [3] = variants of: B1; test: normalized RNA/DNA level without ligand (relative to sTRSVctl = 100) (log10 (% of sTRSVctl)); ligand: hypoxanthine (xanthine aptamer); higher = less ribozyme self-cleavage, higher mRNA level; conditions: HEK293T, reporter: mCherry (pCS4076), ligand present: no
Method: as §2

hypoxanthine [4] = variants of: B1; test: FACS-Seq fitted mean relative fluorescence mCherry/BFP with ligand (log10 relative fluorescence); ligand: hypoxanthine (xanthine aptamer); ligand concentration (+) FACS-Seq: 5 mM; higher = higher reporter protein expression; conditions: HEK293T, ligand present: yes
How it was run: as §1

Row | Variant | FACS-Seq fitted mean (log10) (hypoxanthine [1]) | normalized RNA/DNA level with ligand (log10) (hypoxanthine [2]) | normalized RNA/DNA level without ligand (log10) (hypoxanthine [3]) | FACS-Seq fitted mean (log10) (hypoxanthine [4])
1 | CCAAAU | 0.00231 ± 0.0079 | 1.93 ± 0.0062 | 1.83 ± 0.058 | 0.404 ± 0.042
2 | CCAAAC | 0.763 ± 0.049 | 1.93 ± 0.038 | 1.875 ± 0.012 | 0.528 ± 0.086
3 | CAUUAA | 0.176 ± 0.0055 | 1.87 ± 0.071 | 1.712 ± 0.015 | 0.306 ± 0.052
4 | CAUUAU | 0.7325 ± 0.0015 | 1.9 ± 0.08 | 1.8 ± 0.021 | 0.778 ± 0.098
5 | AAUGCA | 0.304 ± 0.078 | 1.9039 ± 0.0013 | 1.772 ± 0.012 | 0.563 ± 0.029
6 | AAUGCG | -0.0193 ± 0.038 | 1.85 ± 0.03 | 1.42 ± 0.089 | 0.462 ± 0.044
7 | CCACCC | 0.2004 ± 0.0019 | 1.93 ± 0.044 | 1.93 ± 0.045 | 0.312 ± 0.0055
8 | GCAACA | -0.108 ± 0.043 | 1.96 ± 0.027 | 1.85 ± 0.059 | -0.0215 ± 0.13
9 | AAUUCA | 0.486 ± 0.061 | 1.93 ± 0.049 | 1.86 ± 0.025 | 0.567 ± 0.082
10 | AAUUCG | 0.321 ± 0.022 | 1.9 ± 0.041 | 1.52 ± 0.043 | 0.729 ± 0.034
11 | UCAUCA | 0.87 ± 0.1 | 1.99 ± 0.031 | 1.98 ± 0.044 | 0.763 ± 0.052
12 | GCACUG | 0.25 ± 0.031 | 1.877 ± 0.012 | 1.45 ± 0.029 | 0.464 ± 0.011
13 | GCACUU | 0.8516 ± 0.0035 | 1.965 ± 0.015 | 1.9 ± 0.068 | 0.751 ± 0.069
14 | GCACUA | 0.503 ± 0.091 | 1.939 ± 0.0064 | 1.81 ± 0.027 | 0.489 ± 0.08
15 | GCAAAU | -0.00409 ± 0.019 | 1.932 ± 0.0088 | 1.75 ± 0.043 | 0.371 ± 0.013
16 | GCAAAC | 0.411 ± 0.03 | 1.91 ± 0.023 | 1.6 ± 0.036 | 0.455 ± 0.055
17 | ACAAGG | -0.00738 ± 0.11 | 1.83 ± 0.065 | 1.26 ± 0.024 | 0.113 ± 0.14
18 | ACAAGA | 0.164 ± 0.1 | 1.891 ± 0.0031 | 1.65 ± 0.037 | 0.121 ± 0.037
19 | ACAAGC | 0.743 ± 0.017 | 1.92 ± 0.033 | 1.76 ± 0.015 | 0.863 ± 0.082
20 | GAUGCG | 0.0728 ± 0.0046 | 1.87 ± 0.038 | 1.498 ± 0.0066 | 0.5658 ± 0.0024
21 | GAUGCU | -0.0807 ± 0.06 | 1.93 ± 0.063 | 1.867 ± 0.012 | 0.0649 ± 0.0092
22 | GAUGCC | 0.537 ± 0.022 | 1.96 ± 0.024 | 1.879 ± 0.018 | 0.5688 ± 0.0033
23 | GCAAGA | 0.209 ± 0.025 | 1.94 ± 0.045 | 1.708 ± 0.0095 | 0.332 ± 0.0071
24 | GAUGGG | -0.0971 ± 0.21 | 1.81 ± 0.025 | 1.3 ± 0.053 | 0.3779 ± 0.0029

Row | Variant | FACS-Seq fitted mean (log10) (hypoxanthine [1]) | normalized RNA/DNA level with ligand (log10) (hypoxanthine [2]) | normalized RNA/DNA level without ligand (log10) (hypoxanthine [3]) | FACS-Seq fitted mean (log10) (hypoxanthine [4])
25 | GAUGGU | 0.501 ± 0.024 | 1.95 ± 0.07 | 1.76 ± 0.022 | 0.748 ± 0.062
26 | GAUGGC | 0.369 ± 0.012 | 1.89 ± 0.016 | 1.598 ± 0.0036 | 0.596 ± 0.041
27 | GAUGGA | 0.4617 ± 0.0039 | 1.913 ± 0.0011 | 1.67 ± 0.036 | 0.698 ± 0.029
28 | UCACAU | -0.364 ± 0.044 | 1.93 ± 0.051 | 1.8 ± 0.021 | 0.26 ± 0.027
29 | UCAGGA | 0.301 ± 0.039 | 1.89 ± 0.02 | 1.44 ± 0.047 | 0.6634 ± 0.0026
30 | UCAGGG | 0.486 ± 0.02 | 1.951 ± 0.015 | 1.69 ± 0.065 | 0.704 ± 0.067
31 | UAUGUG | -0.0408 ± 0.016 | 1.91 ± 0.022 | 1.7 ± 0.034 | 0.0665 ± 0.031
32 | UAUGUC | -0.423 ± 0.035 | 1.944 ± 0.011 | 1.95 ± 0.053 | -0.356 ± 0.048
33 | CCAAUG | 0.585 ± 0.11 | 1.929 ± 0.011 | 1.61 ± 0.046 | 0.683 ± 0.023
34 | CAUUUA | -0.0161 ± 0.022 | 1.98 ± 0.036 | 1.77 ± 0.034 | 0.532 ± 0.019
35 | CAUUUC | 0.66 ± 0.057 | 1.92 ± 0.043 | 1.9 ± 0.069 | 0.774 ± 0.066
36 | GCAGUG | 0.155 ± 0.01 | 1.87 ± 0.075 | 1.4 ± 0.064 | 0.533 ± 0.039
37 | GCAGUC | 0.791 ± 0.051 | 1.94 ± 0.047 | 1.71 ± 0.047 | 0.764 ± 0.064
38 | GAUUCG | -0.06 ± 0.056 | 1.906 ± 0.0054 | 1.54 ± 0.021 | 0.357 ± 0.021
39 | ACAAUG | 0.37 ± 0.017 | 1.87 ± 0.061 | 1.56 ± 0.053 | 0.638 ± 0.044
40 | ACAAUA | 0.442 ± 0.015 | 1.916 ± 0.017 | 1.81 ± 0.015 | 0.552 ± 0.018
41 | AAUGUU | 0.678 ± 0.033 | 1.9 ± 0.072 | 1.85 ± 0.038 | 0.605 ± 0.077
42 | AAUGUA | 0.284 ± 0.0037 | 1.9 ± 0.088 | 1.79 ± 0.047 | 0.204 ± 0.0096
43 | AAUGUG | 0.203 ± 0.0069 | 1.82 ± 0.026 | 1.39 ± 0.05 | 0.573 ± 0.036
44 | ACAUAG | 0.305 ± 0.026 | 1.84 ± 0.072 | 1.52 ± 0.024 | 0.522 ± 0.046
45 | ACAUAA | 0.531 ± 0.011 | 1.899 ± 0.0086 | 1.79 ± 0.021 | 0.532 ± 0.029
46 | GAUUAA | 0.276 ± 0.0053 | 1.949 ± 0.012 | 1.79 ± 0.044 | 0.381 ± 0.012
47 | GAUUAU | 0.368 ± 0.062 | 1.945 ± 0.0077 | 1.839 ± 0.012 | 0.455 ± 0.019
48 | GAUUAC | 0.748 ± 0.036 | 1.935 ± 0.0039 | 1.8 ± 0.049 | 0.749 ± 0.12

Row | Variant | FACS-Seq fitted mean (log10) (hypoxanthine [1]) | normalized RNA/DNA level with ligand (log10) (hypoxanthine [2]) | normalized RNA/DNA level without ligand (log10) (hypoxanthine [3]) | FACS-Seq fitted mean (log10) (hypoxanthine [4])
49 | GAUUAG | 0.0562 ± 0.066 | 1.86 ± 0.075 | 1.39 ± 0.014 | 0.539 ± 0.085
50 | CCAACC | 0.551 ± 0.044 | 1.94 ± 0.021 | 1.95 ± 0.054 | 0.584 ± 0.055
51 | CCAACU | 0.611 ± 0.037 | 2.02 ± 0.025 | 1.945 ± 0.012 | 0.58 ± 0.015
52 | CCAUAC | 0.1516 ± 0.0013 | 1.9 ± 0.031 | 1.836 ± 0.011 | 0.283 ± 0.013
53 | CCAUAU | 0.286 ± 0.014 | 1.96 ± 0.029 | 1.82 ± 0.057 | 0.542 ± 0.01
54 | CAUGGU | 0.331 ± 0.045 | 1.82 ± 0.02 | 1.755 ± 0.0046 | 0.455 ± 0.014
55 | CAUGGG | 0.245 ± 0.013 | 1.86 ± 0.038 | 1.39 ± 0.038 | 0.603 ± 0.0033
56 | UAUUCA | 0.158 ± 0.15 | 1.942 ± 0.0084 | 1.925 ± 0.0052 | 0.144 ± 0.082
57 | UAUGGU | 0.514 ± 0.064 | 1.88 ± 0.036 | 1.527 ± 0.004 | 0.643 ± 0.029
58 | UAUGGG | 0.525 ± 0.08 | 1.857 ± 0.0095 | 1.41 ± 0.084 | 0.723 ± 0.072
59 | UAUGGC | -0.121 ± 0.027 | 1.92 ± 0.012 | 1.82 ± 0.022 | 0.322 ± 0.0061
60 | GAUUGC | 0.4839 ± 0.0013 | 1.87 ± 0.054 | 1.65 ± 0.043 | 0.553 ± 0.01
61 | GAUUGU | 0.452 ± 0.076 | 1.944 ± 0.01 | 1.77 ± 0.042 | 0.601 ± 0.054
62 | GAUUGG | -0.303 ± 0.024 | 1.794 ± 0.017 | 1.29 ± 0.047 | 0.393 ± 0.017
63 | GAUUGA | 0.348 ± 0.023 | 1.92 ± 0.022 | 1.61 ± 0.05 | 0.455 ± 0.063
64 | GCACGG | -0.136 ± 0.023 | 1.86 ± 0.026 | 1.444 ± 0.009 | 0.376 ± 0.087
65 | GAUUUG | 0.162 ± 0.045 | 1.87 ± 0.046 | 1.4542 ± 0.00087 | 0.521 ± 0.0058
66 | GAUUUA | 0.541 ± 0.043 | 1.89 ± 0.036 | 1.87 ± 0.051 | 0.437 ± 0.1
67 | CCAGAA | 0.561 ± 0.0022 | 1.94 ± 0.053 | 1.79 ± 0.053 | 0.631 ± 0.011
68 | CCAGAG | 0.628 ± 0.021 | 1.95 ± 0.038 | 1.51 ± 0.066 | 0.741 ± 0.022
69 | UCACUG | 0.184 ± 0.08 | 1.89 ± 0.041 | 1.55 ± 0.012 | 0.463 ± 0.081
70 | CCACUG | 0.339 ± 0.054 | 1.917 ± 0.012 | 1.8 ± 0.1 | 0.526 ± 0.076
71 | UAUUGG | 0.528 ± 0.017 | 1.87 ± 0.031 | 1.431 ± 0.011 | 0.745 ± 0.06
72 | UAUUGU | 0.106 ± 0.0092 | 1.92 ± 0.044 | 1.7 ± 0.026 | 0.411 ± 0.049
